This series can be described thus: self-splicing fitness, log relative to wild type (ln ratio); higher = more splicing; Tetrahymena group I intron in knt gene, E. coli kanamycin selection, DiMSum; sequences stand for … in CUCUCU…GGAGGGAAAAGUUAUCAGGCAUGCACCUGGUAGCUAGUCUUUAAACCAAUAGAUUGCAUCGGUUUAAAAGGCAAGACCGUCAAAUUGCGGGAAAGGGGUCAACAGCCGUUCAGUACCAAGUCUCAGGGGAAACUUUGAGAUGGCCUUGCAAAGGGUAUGGUAAUAAGCUGACGGACAUGGUCCUAACCACGCAGCCAAGUCCUAAGUCAACAGAUCUUCUGUUGAUAUGGAUGCAGUUCACAGACUAAAUGUCGGUCGGGGAAGAUGUAUUCUUCUCAUAAGAUAUAGUCGGACCUCUCCUUAAUGGGAGCUAGCGGAUGAAGUGAUGCAACACUGGAGCCGCUGGGAACUAAUUUGUAUGCGAAAGUAUAUUGAUUAGUUUUGGAGUACUCGUGGUCG
Summed up:
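A randomised library covering all eight P1ex-region intron nucleotides was built with the intron in the knt kanamycin-resistance gene on pET-22b(+) and held in E. coli BL21(DE3). Cells were grown overnight at 37°C or 30°C on LB agar, with or without 25 μg/mL kanamycin, plus 100 μg/mL carbenicillin, 50 μM IPTG and 0.2% rhamnose, and pooled colonies were amplicon-sequenced on an Illumina HiSeq 2500. DiMSum fitness is the error-weighted combination of wild-type-normalised replicate fold changes, kanamycin versus none.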

± gives the uncertainty stated by the source.

Take CUAAAGCAAUAUUACGCAUA: the “self-splicing fitness (ln)” value reads like this: (30 °C) -3.66 ± 0.23; (37 °C) -2.65 ± 0.24.
For the sequence CUAAAGCAAUAUUACGCAUG, the “self-splicing fitness (ln)” value is -0.592 ± 0.071 (30 °C) and -0.193 ± 0.089 (37 °C).
With CUAAAGCAAUAUUACGCUAC, the “self-splicing fitness (ln)” value (30 °C) is -3.59 ± 0.37 and the “self-splicing fitness (ln)” value (37 °C) was -2.59 ± 0.26.
For CUAAAGCAAUAUUACGCUAG, in that order: -3.41 ± 0.24 and -1.84 ± 0.13.
Take CUAAAGCAAUAUUACGGAGU: the “self-splicing fitness (ln)” value by setting is: (30 °C) -4.03 ± 0.15; (37 °C) -3.19 ± 0.23.
With CUAAAGCAAUAUUACGGGCC, the “self-splicing fitness (ln)” value (30 °C) was -2.8 ± 0.23 and the “self-splicing fitness (ln)” value (37 °C) is -1.28 ± 0.2.
With CUAAAGCAAUAUUACGGGUG, the “self-splicing fitness (ln)” value by setting is: (30 °C) 0.107 ± 0.039; (37 °C) 0.493 ± 0.064.
For CUAAAGCAAUAUUACGGUGC, the “self-splicing fitness (ln)” value (30 °C) was -3.22 ± 0.16 and the “self-splicing fitness (ln)” value (37 °C) was -3.15 ± 0.25.
Take CUAAAGCAAUAUUACGGUUA: the “self-splicing fitness (ln)” value was -3.78 ± 0.33 (30 °C) and -2.72 ± 0.25 (37 °C).
On to CUAAAGCAAUAUUACGUAAA, for which the “self-splicing fitness (ln)” value by setting is: (30 °C) -2.81 ± 0.14; (37 °C) -3.36 ± 0.26.
For CUAAAGCAAUAUUACGUAUC, in that order: -3.77 ± 0.18 and -2.22 ± 0.22.
CUAAAGCAAUAUUACGUCUG: the “self-splicing fitness (ln)” value reads like this: (30 °C) 0.155 ± 0.049; (37 °C) 0.458 ± 0.071.
CUAAAGCAAUAUUACGUGAC: the “self-splicing fitness (ln)” value (30 °C) is -1.12 ± 0.051 and the “self-splicing fitness (ln)” value (37 °C) is -0.411 ± 0.078.
Take CUAAAGCAAUAUUACGUUAA: the “self-splicing fitness (ln)” value was -3.6 ± 0.11 (30 °C) and -2.53 ± 0.15 (37 °C).
For CUACAGCAAUAUUACGAAAG, the “self-splicing fitness (ln)” value (30 °C) is -1.42 ± 0.078 and the “self-splicing fitness (ln)” value (37 °C) was -0.755 ± 0.094.
For CUACAGCAAUAUUACGAAUA, in that order: -3.07 ± 0.41 and -2.21 ± 0.27.
In the same order, the values of CUACAGCAAUAUUACGAGCA are -2.77 ± 0.16 and -2.56 ± 0.23.
Take CUACAGCAAUAUUACGAGGU: the “self-splicing fitness (ln)” value was -2.63 ± 0.13 (30 °C) and -3.03 ± 0.27 (37 °C).
For CUACAGCAAUAUUACGAUAU, in that order: -3.89 ± 0.22 and -1.4 ± 0.22.
Consider CUACAGCAAUAUUACGAUUG, for which the “self-splicing fitness (ln)” value (30 °C) was -0.678 ± 0.055 and the “self-splicing fitness (ln)” value (37 °C) is -0.0365 ± 0.078.
For CUACAGCAAUAUUACGCCAU, the “self-splicing fitness (ln)” value is -3.16 ± 0.12 (30 °C) and -2.45 ± 0.14 (37 °C).
For CUACAGCAAUAUUACGCGAA, the “self-splicing fitness (ln)” value runs as follows: (30 °C) -2.83 ± 0.18; (37 °C) -3.89 ± 0.31.
CUACAGCAAUAUUACGGAAU: the “self-splicing fitness (ln)” value by setting is: (30 °C) -4.13 ± 0.32; (37 °C) -3.3 ± 0.26.
Turning to CUACAGCAAUAUUACGGCGU, the “self-splicing fitness (ln)” value (30 °C) is -3.49 ± 0.13 and the “self-splicing fitness (ln)” value (37 °C) was -2.94 ± 0.19.
For CUACAGCAAUAUUACGGCUA, in that order: -3.25 ± 0.25 and -3.02 ± 0.22.
For CUACAGCAAUAUUACGGGCU, in that order: -4.53 ± 0.29 and -2.97 ± 0.29.
Take CUACAGCAAUAUUACGGGUA: the “self-splicing fitness (ln)” value is, setting by setting: (30 °C) -3.25 ± 0.19; (37 °C) -2.05 ± 0.12.
As for CUACAGCAAUAUUACGGGUG, the “self-splicing fitness (ln)” value (30 °C) was -0.249 ± 0.037 and the “self-splicing fitness (ln)” value (37 °C) is -0.538 ± 0.053.
On to CUACAGCAAUAUUACGUAUA, for which the “self-splicing fitness (ln)” value was -2.73 ± 0.2 (30 °C) and -1.13 ± 0.18 (37 °C).
For CUACAGCAAUAUUACGUCAA, the “self-splicing fitness (ln)” value is, setting by setting: (30 °C) -3.91 ± 0.19; (37 °C) -1.82 ± 0.14.
Regarding CUACAGCAAUAUUACGUCUU, the “self-splicing fitness (ln)” value is, setting by setting: (30 °C) -4.14 ± 0.24; (37 °C) -3.48 ± 0.25.
In the same order, the values of CUACAGCAAUAUUACGUGAG are -0.958 ± 0.058 and -0.926 ± 0.086.
For CUACAGCAAUAUUACGUGGG, in that order: -4.01 ± 0.2 and -2.61 ± 0.15.
As for CUACAGCAAUAUUACGUUCC, the “self-splicing fitness (ln)” value (30 °C) was -2.48 ± 0.22.
On to CUAGAGCAAUAUUACGAAUU, for which the “self-splicing fitness (ln)” value (30 °C) was -3.78 ± 0.28 and the “self-splicing fitness (ln)” value (37 °C) is -1.95 ± 0.29.
For CUAGAGCAAUAUUACGAGAC, in that order: -2.63 ± 0.29 and -0.86 ± 0.3.
For CUAGAGCAAUAUUACGAGUG, in that order: -0.496 ± 0.067 and -0.868 ± 0.085.

Values taken from the supplement of paper PMC7877785.
